The target in one experiment is T1, recombinant adiponectin (UniProt Q15848 19-244).
T1 construct: adiponectin; also called ADN; source: recombinant
T1 sequence (looked up): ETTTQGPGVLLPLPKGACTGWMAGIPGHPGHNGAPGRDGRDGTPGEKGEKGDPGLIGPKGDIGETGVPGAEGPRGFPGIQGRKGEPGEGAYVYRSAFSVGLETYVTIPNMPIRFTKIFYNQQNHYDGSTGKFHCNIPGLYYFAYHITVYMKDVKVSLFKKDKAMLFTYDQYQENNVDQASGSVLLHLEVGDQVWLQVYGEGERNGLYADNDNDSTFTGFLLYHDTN
Kind of experiment: plate binding assay with HiBiT luminescence (Nano-Glo HiBiT Extracellular Detection System); ApoE4 or adiponectin coated on 96-well plates (20 pM in 50 mM carbonate buffer pH 9.6, overnight 4 °C), blocked with 1% skim milk in PBS; CLSP-HiBiT in PBS added, overnight 4 °C; washed with PBS with 0.1% NP-40; in duplicate. As to conditions: both partners purified. Background: With HiBiT, luminescence reflects the tagged protein that the partner subunit can reach.

The target in experiment [1] is recombinant apolipoprotein E4 (UniProt P02649). Described as above.

B1: CLSP-HiBiT (natural protein, human, UniProt Q9NZT1 1-146, looked up)
chain: MAGELTPEEEAQYKKAFSAVDTDGNGTINAQELGAALKATGKNLSEAQLRKLISEVDSDGDGEISFQEFLTAAKKARAGLEDLQVAFRAFDQDGDGHITVDELRRAMAGLGQPLPQEELDAMIREADVDQDGRVNYEEFARMLAQE
notes: calmodulin-like skin protein (CLSP); also called recombinant CLSP-HiBiT; source: recombinant
B1: the values for the Kd (in the experiment with recombinant adiponectin; in experiment [1]) were 7.8 pM and 8.8 pM, respectively.

For orientation: Kd means the equilibrium constant for the complex coming apart.

(Values after paper PMC7806720, “Restoration of the reduced CLSP activity alleviates memory impairment in Alzheimer disease” (Translational Psychiatry, 2021).)
